{"source": "the supplement of paper PMC9112550", "about": "“Optimization of the antimicrobial peptide Bac7 by deep mutational scanning” (BMC Biology, 2022);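 also: peptides expressed intracellularly from a pBAD plasmid library in pooled LB shake-flask culture, induced with 0.3% L-arabinose, DNA abundance read by NGS, three biological replicates, DESeq2 with apeglm shrinkage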"}
{"tested_on": "Escherichia coli TOP10", "test": "shrunken log2 fold change of peptide-encoding DNA abundance (4.5 h post-induction vs induction); higher = less antimicrobial activity (less host growth inhibition)", "conditions": "time post-induction: 4.5 h; library: site-saturation at positions 5, 18, 19, 20"}
{"sequence": "RRIRHRPPRLPRPRPRPFPIPRP", "shrunken log2 fold change": 0.0165}
{"sequence": "RRIRVRPPRLPRPRPRPYNMPRP", "shrunken log2 fold change": -0.979}
{"sequence": "RRIRHRPPRLPRPRPRPFDIPRP", "shrunken log2 fold change": -0.212}
{"sequence": "RRIRMRPPRLPRPRPRPKYQPRP", "shrunken log2 fold change": 0.0592}
{"sequence": "RRIRMRPPRLPRPRPRPRPHPRP", "shrunken log2 fold change": 1.05}
{"sequence": "RRIRPRPPRLPRPRPRPYNSPRP", "shrunken log2 fold change": -0.55}
{"sequence": "RRIRNRPPRLPRPRPRPNLPPRP", "shrunken log2 fold change": -0.0407}
{"sequence": "RRIRARPPRLPRPRPRPDVTPRP", "shrunken log2 fold change": 0.533}
{"sequence": "RRIRDRPPRLPRPRPRPGVFPRP", "shrunken log2 fold change": -0.00239}
{"sequence": "RRIRIRPPRLPRPRPRPFESPRP", "shrunken log2 fold change": -0.218}
{"sequence": "RRIRVRPPRLPRPRPRPKPQPRP", "shrunken log2 fold change": 0.719}
{"sequence": "RRIRCRPPRLPRPRPRPGLAPRP", "shrunken log2 fold change": 0.544}
{"sequence": "RRIRPRPPRLPRPRPRPTNTPRP", "shrunken log2 fold change": -0.375}
{"sequence": "RRIRSRPPRLPRPRPRPMYYPRP", "shrunken log2 fold change": -0.468}
{"sequence": "RRIRCRPPRLPRPRPRPADEPRP", "shrunken log2 fold change": 0.431}
{"sequence": "RRIRWRPPRLPRPRPRPHGMPRP", "shrunken log2 fold change": 0.0365}
{"sequence": "RRIRGRPPRLPRPRPRPYWHPRP", "shrunken log2 fold change": -0.627}
{"sequence": "RRIRWRPPRLPRPRPRPASTPRP", "shrunken log2 fold change": 0.349}
{"sequence": "RRIRYRPPRLPRPRPRPCIWPRP", "shrunken log2 fold change": -0.176}
{"sequence": "RRIRNRPPRLPRPRPRPFIKPRP", "shrunken log2 fold change": -0.473}
{"sequence": "RRIRWRPPRLPRPRPRPNQTPRP", "shrunken log2 fold change": 0.0653}
{"sequence": "RRIRARPPRLPRPRPRPHHLPRP", "shrunken log2 fold change": -0.313}
{"sequence": "RRIRIRPPRLPRPRPRPIYQPRP", "shrunken log2 fold change": -0.00516}
{"sequence": "RRIRERPPRLPRPRPRPGLRPRP", "shrunken log2 fold change": 0.0748}
{"sequence": "RRIRLRPPRLPRPRPRPESVPRP", "shrunken log2 fold change": 0.255}
{"sequence": "RRIRLRPPRLPRPRPRPNRIPRP", "shrunken log2 fold change": -0.0157}
{"sequence": "RRIRNRPPRLPRPRPRPVLMPRP", "shrunken log2 fold change": -0.14}
{"sequence": "RRIRKRPPRLPRPRPRPDFNPRP", "shrunken log2 fold change": 0.0068}
{"sequence": "RRIRWRPPRLPRPRPRPITDPRP", "shrunken log2 fold change": -0.15}
{"sequence": "RRIRCRPPRLPRPRPRPWTGPRP", "shrunken log2 fold change": -0.422}
{"sequence": "RRIRRRPPRLPRPRPRPHRTPRP", "shrunken log2 fold change": 0.102}
{"sequence": "RRIRHRPPRLPRPRPRPLDKPRP", "shrunken log2 fold change": -0.0374}
{"sequence": "RRIRGRPPRLPRPRPRPFTFPRP", "shrunken log2 fold change": -0.0577}
{"sequence": "RRIRIRPPRLPRPRPRPLDEPRP", "shrunken log2 fold change": -0.287}
{"sequence": "RRIRERPPRLPRPRPRPIRVPRP", "shrunken log2 fold change": -0.679}
{"sequence": "RRIRCRPPRLPRPRPRPVANPRP", "shrunken log2 fold change": 0.0866}
{"sequence": "RRIRMRPPRLPRPRPRPSANPRP", "shrunken log2 fold change": 2.44}
{"sequence": "RRIRARPPRLPRPRPRPADYPRP", "shrunken log2 fold change": 0.177}
{"sequence": "RRIRRRPPRLPRPRPRPIDKPRP", "shrunken log2 fold change": -0.0465}
{"sequence": "RRIRARPPRLPRPRPRPALMPRP", "shrunken log2 fold change": 0.534}
{"sequence": "RRIRFRPPRLPRPRPRPASRPRP", "shrunken log2 fold change": 0.128}
{"sequence": "RRIRVRPPRLPRPRPRPRNYPRP", "shrunken log2 fold change": -0.567}
{"sequence": "RRIRERPPRLPRPRPRPNDSPRP", "shrunken log2 fold change": -0.0224}
{"sequence": "RRIRLRPPRLPRPRPRPQFHPRP", "shrunken log2 fold change": -0.414}
{"sequence": "RRIRYRPPRLPRPRPRPVVRPRP", "shrunken log2 fold change": -0.203}
{"sequence": "RRIRARPPRLPRPRPRPHYIPRP", "shrunken log2 fold change": -0.296}
{"sequence": "RRIRWRPPRLPRPRPRPNFYPRP", "shrunken log2 fold change": -0.232}
{"sequence": "RRIRMRPPRLPRPRPRPTLLPRP", "shrunken log2 fold change": 0.2}
{"sequence": "RRIRRRPPRLPRPRPRPHRFPRP", "shrunken log2 fold change": -0.0954}
{"sequence": "RRIRNRPPRLPRPRPRPKRPPRP", "shrunken log2 fold change": 0.589}
{"sequence": "RRIRFRPPRLPRPRPRPGWYPRP", "shrunken log2 fold change": -0.463}
{"sequence": "RRIRTRPPRLPRPRPRPYDKPRP", "shrunken log2 fold change": -0.389}
{"sequence": "RRIRVRPPRLPRPRPRPIMQPRP", "shrunken log2 fold change": -0.149}
{"sequence": "RRIRDRPPRLPRPRPRPAVDPRP", "shrunken log2 fold change": -0.0491}
{"sequence": "RRIRTRPPRLPRPRPRPFRAPRP", "shrunken log2 fold change": -0.597}
{"sequence": "RRIRQRPPRLPRPRPRPICMPRP", "shrunken log2 fold change": -0.0553}
{"sequence": "RRIRGRPPRLPRPRPRPYYSPRP", "shrunken log2 fold change": -0.207}
{"sequence": "RRIRERPPRLPRPRPRPIQMPRP", "shrunken log2 fold change": -0.14}
{"sequence": "RRIRLRPPRLPRPRPRPLRSPRP", "shrunken log2 fold change": 0.474}
{"sequence": "RRIRPRPPRLPRPRPRPQSYPRP", "shrunken log2 fold change": -0.202}
{"sequence": "RRIRLRPPRLPRPRPRPIVMPRP", "shrunken log2 fold change": -0.618}
{"sequence": "RRIRSRPPRLPRPRPRPWVRPRP", "shrunken log2 fold change": 0.0976}
{"sequence": "RRIRFRPPRLPRPRPRPMHQPRP", "shrunken log2 fold change": -0.0493}
{"sequence": "RRIRCRPPRLPRPRPRPYGIPRP", "shrunken log2 fold change": -0.128}
{"sequence": "RRIRHRPPRLPRPRPRPWCFPRP", "shrunken log2 fold change": -0.688}
{"sequence": "RRIRQRPPRLPRPRPRPCWYPRP", "shrunken log2 fold change": -0.261}
{"sequence": "RRIRNRPPRLPRPRPRPTSEPRP", "shrunken log2 fold change": 0.194}
{"sequence": "RRIRYRPPRLPRPRPRPHLCPRP", "shrunken log2 fold change": -0.0639}
{"sequence": "RRIRNRPPRLPRPRPRPKYIPRP", "shrunken log2 fold change": -0.667}
{"sequence": "RRIRKRPPRLPRPRPRPHQNPRP", "shrunken log2 fold change": 0.0256}
{"sequence": "RRIRERPPRLPRPRPRPWMNPRP", "shrunken log2 fold change": -0.0137}
{"sequence": "RRIRVRPPRLPRPRPRPKNWPRP", "shrunken log2 fold change": 0.185}
{"sequence": "RRIRWRPPRLPRPRPRPPGYPRP", "shrunken log2 fold change": 0.684}
{"sequence": "RRIRARPPRLPRPRPRPATIPRP", "shrunken log2 fold change": 0.496}
{"sequence": "RRIRFRPPRLPRPRPRPMTWPRP", "shrunken log2 fold change": 0.478}
